Measured values: patent US9089565B2, “Compositions and methods for causing neurite outgrowth” (MEDICAL RESEARCH COUNCIL, priority 2009, dated 2015)

Biological target: T1, NgR1 (Homo sapiens, UniProt Q9BZR6, S281A)
T1 construct: The cDNAs of NgR1 (NM 023004, Nt. 184-1543); expressed in transfected cells; host or cells: COS7
T1 sequence (Q9BZR6 27-447 S281A): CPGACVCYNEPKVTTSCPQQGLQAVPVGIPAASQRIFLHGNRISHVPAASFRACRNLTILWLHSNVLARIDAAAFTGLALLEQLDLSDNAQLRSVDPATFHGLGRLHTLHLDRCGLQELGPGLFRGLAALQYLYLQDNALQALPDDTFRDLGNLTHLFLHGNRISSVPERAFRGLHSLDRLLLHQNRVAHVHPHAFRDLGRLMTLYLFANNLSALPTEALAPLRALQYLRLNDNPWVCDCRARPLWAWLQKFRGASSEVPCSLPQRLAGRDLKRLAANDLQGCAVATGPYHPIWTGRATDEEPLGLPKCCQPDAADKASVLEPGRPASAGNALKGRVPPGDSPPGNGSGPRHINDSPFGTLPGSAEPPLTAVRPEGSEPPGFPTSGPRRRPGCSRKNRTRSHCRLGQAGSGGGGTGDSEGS
Assay: Binding of Nogo-66 fragment (Nogo-GFP) to COS7 cells over-expressing NgR1
Conditions: 281S/A mutant NgR1; pre-treatment 30 min (CK2 with ATP, or NEP1-40)
Description: FIG. 3. CK2 phosphorylates NgR1, and inhibits binding of the myelin-associated proteins to NgR1. (A) Myc-tagged wild type, 281S/A or 281S/D mutant NgR1 were over-expressed in COS7 cells. The over-expressed cells were incubated with either the combination of ATP and CK2, or NEP1-40 for 30 min at 37° C. After washing with PBS, cells were incubated with Hisx6-tagged Nogo-GFP for 3 hours at 4° C. The cells were fixed and immunofluorescence was performed with anti-Myc and anti-GFP antibodies. (B) COS7 cells over-expressing Myc-tagged wild type NgR1 were treated as described in (A). Proteins were extracted and the Myc-tagged NgR1 was immunoprecipitated with anti-Myc antibody. Co-precipitated Hisx6-tagged Nogo-GFP was detected by anti-GFP antibody. (C) Cell surface proteins in NgR1-overexpressing COS7 cells were labelled with biotin. The biotinylated proteins were fractionated and analysed by SDS-PAGE. Biotinylated NgR1-Myc was detected with anti-Myc. antibody. (D) COS7 cells over-expressing either wild type NgR1-Myc or 281S/A mutant NgR1-Myc were incubated with ã-^32P-ATP in the presence or absence of CK2. Myc-tagged proteins were immunoprecipitated and analysed with SDS-PAGE. Proteins were blotted onto a PVDF membrane and the membrane was exposed to X-ray film to detect incorporated ^32P. After autoradiography, the membrane was used for immunoblotting with anti-Myc antibody. (E and F) COS7 cells over-expressing Myc-tagged wild type, 281S/A or 281S/D mutant NgR1, were treated as described in (A). After washing with PBS, cells were incubated with either His-tagged OMgp (E) or HA-tagged MAG (F) for 3 hours at 4° C. […]
After treatment with or without CK2, COS7 cells over-expressing wild type or mutant NgR were incubated with Hisx6 tagged Nogo-GFP (10 μg/ml), HA-MAG (50 μg/ml) or Hisx6 tagged OMgp (10 μg/ml) in PBS for 3 hours at 4° C. […] Biotinylated proteins were precipitated with streptavidin beads and were analysed by SDS-PAGE. Each sample fractionated from 5×10^6 cells was analysed by SDS-PAGE. […]

binding of the Nogo-66 fragment, immunofluorescence: inhibited binding
Substance: NEP1-40: a competitive inhibitor of Nogo-66 binding to NgR1 (MEDLDQSPLVSSSDSPPRPQPAFKYQFVREPEDEEEEEEE; Nogo-66 residues 1-40; UniProt Q9NQC3 1-40, looked up, fragment) [reference compound]
